# Source: patent publication US20130296258A1 (Pieris, published 2013)
# B1: PIE-G3D (designed binder)
# chain: QDSTSDLIPAPPLSKVPLQQNFQDNQFHGKWYVVGMAGNARLREDKDPVKMTATIYELKEDKSYNVTAVQFRLKKCQYGITTFVPGSQPGEFTLGDIKSIPGLTSMLVRVVSTNYNQHAMVFFKRVRQNREFFDITLYGRTKELTSELKENFIRFSKSLGLPENHIVFPVPIDQCIDGSAWSHPQFEK
# notes: C-terminal Strep-tag II; also called Lcn2 mutein; not shown: C-terminal Strep-tag II
# B2: PIE-G3E (designed binder)
# chain: QDSTSDLIPAPPLSKVPLQQNFQDNQFHGKWYVVGSAGNHRLREDKDPRKMHATIYELKEDKSYNVTNVTFREKKCHYSIGTFVPGSQPGEFTLGKIKSNPGMTSFLVRVVSTNYNQHAMVFFKKVHQNREQFNITLYGRTKELTSELKENFIRFSKSLGLPENHIVFPVPIDQCIDGSAWSHPQFEK
# notes: as for B1
# B3: PIE-G3F (designed binder)
# chain: QDSTSDLIPAPPLSKVPLQQNFQDNQFHGKWYVVGIAGNGQLREDKDPWKMSATIYELKEDKSYNVTSVRFRLKKCSYWIYTFVPGSQPGEFTLGGIKSNPGDTSNLVRVVSTNYNQHAMVFFKYVIQNREWFIITLYGRTKELTSELKENFIRFSKSLGLPENHIVFPVPIDQCIDGSAWSHPQFEK
# notes: as for B1
# B4: PIE-G3G (designed binder)
# chain: QDSTSDLIPAPPLSKVPLQQNFQDNQFHGKWYVVGMAGNASLREDKDPRKMNATIYELKEDKSYNVTKVRFWHKKCYYSITTFVPGSQPGEFTLGDIKSYPGWTSYLVRVVSTNYNQHAMVFFKGVRQNREWFSITLYGRTKELTSELKENFIRFSKSLGLPENHIVFPVPIDQCIDGSAWSHPQFEK
# notes: as for B1
# B5: PIE-G3H (designed binder)
# chain: QDSTSDLIPAPPLSKVPLQQNFQDNQFHGKWYVVGIAGNYILREDKDPPKMRATIYELKEDKSYNVTRVFFSRKKCDYIIWTFVPGSQPGEFTLGFIKSNPGLTSLLVRVVSTNYNQHAMVFFKWVDQNREVFGITLYGRTKELTSELKENFIRFSKSLGLPENHIVFPVPIDQCIDGSAWSHPQFEK
# notes: as for B1
# B6: PIE-G3A (designed binder)
# chain: QDSTSDLIPAPPLSKVPLQQNFQDNQFHGKWYVVGIAGNWILREDKDPPKMRATIYELKEDKSYNVTRVRFDEKKCGYGIATFVPGSQPGEFTLGVIKSRPGITSDLVRVVSTNYNQHAMVFFKFVKQNREYFGITLYGRTKELTSELKENFIRFSKSLGLPENHIVFPVPIDQCIDGSAWSHPQFEK
# notes: Made in E. coli from phNGAL98 with a C-terminal Strep-tag II; also called Lcn2 mutein; not shown: C-terminal Strep-tag II
# B7: PIE-G3B (designed binder)
# chain: QDSTSDLIPAPPLSKVPLQQNFQDNQFHGKWYVVGVAGNAMLREDKDPLKMRATIYELKEDKSYNVTGVSFWRKKCHYKIGTFVPGSQPGEFTLGDIKSGPGQTSNLVRVVSTNYNQHAMVFFKEVRQNREWFAITLYGRTKELTSELKENFIRFSKSLGLPENHIVFPVPIDQCIDGSAWSHPQFEK
# notes: as for B1
# B8: PIE-G3C (designed binder)
# chain: QDSTSDLIPAPPLSKVPLQQNFQDNQFHGKWYVVGRAGNVALREDKDPPKMRATIYELKEDKSYNVTNVRFAMKKCMYSIGTFVPGSQPGEFTLGQIKSEPGNTSNLVRVVSTNYNQHAMVFFKEVYQNREIFFITLYGRTKELTSELKENFIRFSKSLGLPENHIVFPVPIDQCIDGSAWSHPQFEK
# notes: as for B1
# B9: Lcn2 wildtype protein (other)
# chain: QDSTSDLIPAPPLSKVPLQQNFQDNQFHGKWYVVGLAGNAILREDKDPQKMYATIYELKEDKSYNVTSVLFRKKKCDYWIRTFVPGSQPGEFTLGNIKSYPGLTSYLVRVVSTNYNQHAMVFFKKVSQNREYFKITLYGRTKELTSELKENFIRFSKSLGLPENHIVFPVPIDQCIDG
# notes: also called recombinant Lcn2; negative control; not shown: C-terminal Strep-tag II of the phNGAL98 expression vector
# Key:
# [1] = biological target: T1, Recombinant human Glypican-3 (human, UniProt P51654 25-559, limits assumed, randomly biotinylated via Lysine residues (EZ-Link Sulfo-NHS-LC-LC-Biotin) where captured on Neutravidin; not biotinylated where used as competitor in solution); assay: competition ELISA: constant mutein pre-incubated with a dilution series of non-biotinylated human Glypican-3, free mutein detected on plate-captured biotinylated human Glypican-3
# T1 construct: Bought protein; The biotinylated and the non-biotinylated preparation are written as one molecule; also called GPC3; GPC-3
# T1 sequence (P51654 25-559 limits assumed): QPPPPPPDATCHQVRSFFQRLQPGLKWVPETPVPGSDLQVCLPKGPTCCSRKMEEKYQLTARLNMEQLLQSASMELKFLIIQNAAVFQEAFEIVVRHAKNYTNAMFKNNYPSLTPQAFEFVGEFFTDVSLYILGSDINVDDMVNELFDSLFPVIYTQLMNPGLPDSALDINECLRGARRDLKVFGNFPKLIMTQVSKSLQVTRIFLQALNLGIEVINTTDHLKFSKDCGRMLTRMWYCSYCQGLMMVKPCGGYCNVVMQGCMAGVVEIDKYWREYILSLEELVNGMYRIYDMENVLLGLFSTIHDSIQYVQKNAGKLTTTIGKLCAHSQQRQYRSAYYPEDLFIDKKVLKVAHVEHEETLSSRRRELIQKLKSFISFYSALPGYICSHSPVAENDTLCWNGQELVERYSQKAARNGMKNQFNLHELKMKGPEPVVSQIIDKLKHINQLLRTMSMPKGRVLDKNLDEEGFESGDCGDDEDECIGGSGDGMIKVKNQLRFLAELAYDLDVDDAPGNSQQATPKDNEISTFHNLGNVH
# Description: The binding affinity of the Lcn2 muteins to non-modified Glypican-3 in solution was evaluated in a competition ELISA approach. Therefore, a constant concentration of 1 μg/ml biotinylated human Glypican-3 (R&D Systems) was captured on the surface of a polystyrol plate (Greiner, GE) via Neutravidin (Thermo Scientific, 5 μg/ml, GE). In parallel a two step dilution series of non-biotinylated human Glypican-3 starting from 1.5 μM was incubated with a constant concentration of GPC3-specific mutein for 1 h at room temperature in a non-protein binding 96 well polypropylene plate (Nunc, GE). The constant concentration of lipocalin muteins corresponds to the EC₅₀ of the respective muteins as determined in a direct ELISA as described above in this example. In the following the mixture of non-modified human GPC3 and lipocalin mutein was transferred onto the GPC3-captured Neutravidin plate. The biotinylated GPC3 was allowed to compete with the non-modified GPC3 for Anticalin binding for 1 h at room temperature. During these 1 h, free lipcocalin mutein was bound to the captured GPC3 and detected via a rabbit anti-strep-tag II polyconal antibody (GenScript, USA). A goat anti-rabbit IgG-HRP conjugate (Abcam, UK) was employed as secondary detection antibody. Parallel to the competition assay, anticalin binding was determined on the same plate in a “direct” ELISA, in order to obtain a standard curve linking the RFU values to anticalin concentration. This curve was then used to standardize competition data to the level of anticalins bounds to the plate and fitted with Graphpad software. IC₅₀ values correspond to the half-maximum amount of lipocalin mutein bound to the plate.
# mouse GPC3-SK-HEP1 = biological target: T2, mouse GPC3-SK-HEP1 (mouse, UniProt Q8CFZ4); assay: flow cytometry on SK-HEP1 cells stably transfected with mouse GPC3, detection via rabbit anti-hNGAL antiserum and anti-rabbit IgG-PE
# T2 construct: cell-surface protein on transfected cells; also called mouse GPC3 transfected SK-Hep1 cells
# T2 sequence (Q8CFZ4 25-553 limits assumed): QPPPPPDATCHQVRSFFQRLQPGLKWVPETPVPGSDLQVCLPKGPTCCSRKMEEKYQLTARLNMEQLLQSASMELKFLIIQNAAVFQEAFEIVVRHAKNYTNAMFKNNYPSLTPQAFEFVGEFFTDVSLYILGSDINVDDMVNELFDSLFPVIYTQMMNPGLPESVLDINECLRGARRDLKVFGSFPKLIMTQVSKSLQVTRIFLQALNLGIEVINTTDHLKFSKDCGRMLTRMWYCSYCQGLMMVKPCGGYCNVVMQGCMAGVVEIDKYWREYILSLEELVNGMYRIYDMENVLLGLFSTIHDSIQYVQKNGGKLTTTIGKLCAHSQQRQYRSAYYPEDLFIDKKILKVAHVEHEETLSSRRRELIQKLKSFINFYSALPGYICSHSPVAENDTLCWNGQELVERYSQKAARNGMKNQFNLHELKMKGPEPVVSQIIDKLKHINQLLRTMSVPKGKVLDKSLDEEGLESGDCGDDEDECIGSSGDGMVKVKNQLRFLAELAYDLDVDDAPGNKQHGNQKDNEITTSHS
# Description: (§1) Empty vector control cells were also obtained and analyzed in parallel. Detection of GPC3 was achieved using mouse anti-glypican 3 clone 1G12 monoclonal antibody (DCS).
# (§2) In order to assess binding of muteins to the GPC3 on the cell surface, 200,000 cells in PBS/2% FCS were used in each binding reaction. Reactions were performed on ice in 30 μl for 2 h. Following two washing steps in PBS/2% FCS a secondary rabbit anti-hNGAL scaffold antiserum was employed for 30 min. followed another two wash steps. […] Measurements were performed on a FACSCalibur flow cytometer where 10,000 events were acquired for each sample. Geometric mean values were compiled in FlowJo (Treestar software) and fitted to a sigmoidal dose response model in the Prism 5 program (GraphPad) to obtain EC50 values.
# [2] = biological target: T1, Recombinant human Glypican-3; assay: direct ELISA; biotinylated human Glypican-3 (1 ug/ml) captured via Neutravidin, dilution series of purified mutein
# Description: (§3) A “direct” ELISA was performed to verify the binding affinity and specificity of the selected Lcn2 muteins. Therefore, a constant concentration of 1 μg/ml biotinylated human Glypican 3 (R&D Systems) was captured on the surface of a polystyrol plate (Greiner, GE) via BSA blocked Neutravidin (Thermo Scientific, 5 μg/ml). Two step dilution series of purified Lcn2 muteins were incubated with the captured GPC-3 for 1 h at room temperature and detected either via the Strep-tag II using a rabbit anti-strep-tag II polyconal antibody (GenScript, USA) or by using a scaffold-specific polyclonal rabbit antibody. In both cases an anti rabbit IgG-HRP conjugate (Abcam, UK) was employed as secondary detection antibody.
# (§4) The absorption ΔA at […] was measured in an ELISA reader (Tecan, GE) and the data were fitted with Graphpad Prism software (Statcom, USA).
# cyno GPC3-SK-HEP1 = biological target: T3, cyno GPC3-SK-HEP1 (Macaca fascicularis, UniProt A0A2K5VK50); assay: flow cytometry on SK-HEP1 cells stably transfected with cynomolgus GPC3, detection via rabbit anti-hNGAL antiserum and anti-rabbit IgG-PE
# T3 construct: cell-surface protein on transfected cells; also called cynomolgus GPC3; cyno GPC3 transfected SK-Hep1 cells
# Description: as §1, §2
# [3] = biological target: T1, Recombinant human Glypican-3; assay: flow cytometry on SK-HEP1 cells stably transfected with human GPC3, detection via rabbit anti-hNGAL antiserum and anti-rabbit IgG-PE
# Description: as §1, §2
# [4] = biological target: T1, Recombinant human Glypican-3; assay: SPR (Biacore T100), Glypican-3 amine-coupled to a CM5 chip, mutein as analyte, evaluated conc 40/120 nM, 1:1 model
# Description: (§5) Real time analysis of the binding of the Lcn2 muteins to Glypican-3 was performed on a Biacore T100 system (GE Healthcare Bio-Sciences AB, Uppsala, Sweden) using HBS-EP+ (BR-1006-69, GE Healthcare Bio-Sciences AB, Uppsala, Sweden) as running buffer. A 10 μg/mL solution of Glypican-3 in 10 mM sodium acetate pH 4.5 was immobilized onto a CM5 chip (GE Healthcare Bio-Sciences AB, Uppsala, Sweden) using standard amine coupling chemistry, resulting in a ligand density of 467 RU. The purified Lcn2 muteins were applied in concentrations of 40 nM and 120 nM at a flow rate of 30 μL/min. The dilutions were injected with association times of 120 sec and dissociation times of 420 sec to obtain ka and kd information. Regeneration of the ligand was achieved by injecting either 6 M Guanidinium-HCl (120 sec/300 sec) or 3 M MgCl2 (900 sec) with a flow rate of 10 μL/min. Injection of regeneration solutions was followed by an extra wash step with running buffer and a stabilization period of 180 sec.
# (§6) The data were double-referenced by subtraction of the corresponding signals measured for the control channel, which had been activated and blocked with ethanolamine and by substraction of buffer injections from the binding responses. ka and kd for the binding reaction were determined using Biacore T100 Evaluation Software V2.0.1 for data processing and kinetic fitting. The data were globally fit with 1:1 binding model.
# [5] = biological target: T1, Recombinant human Glypican-3; assay: SPR (Biacore T100), Glypican-3 amine-coupled to a CM5 chip, mutein as analyte, evaluated conc 120 nM, 1:1 model
# Description: as §5, §6
# [6] = biological target: T1, Recombinant human Glypican-3; assay: direct ELISA: biotinylated human Glypican-3 captured via Neutravidin, protein titrated, RFU readout
# Description: as §3, §4
Binder,IC50 [1],EC50 (mouse GPC3-SK-HEP1),Kd [2],EC50 (cyno GPC3-SK-HEP1),EC50 [3],Kd [4],koff [4],kon [4],Kd [5],koff [5],kon [5],binding result [6]
B1,700 pM,10500 pM,460 pM,700 pM,1000 pM,1400 pM,0.00109 s⁻¹,781000 M⁻¹ s⁻¹,,,,
B2,100 pM,2700 pM,200 pM,120 pM,400 pM,350 pM,0.00178 s⁻¹,5.11e+06 M⁻¹ s⁻¹,,,,
B3,70 pM,18700 pM,350 pM,3200 pM,4700 pM,3130 pM,0.00128 s⁻¹,409000 M⁻¹ s⁻¹,,,,
B4,100 pM,4300 pM,270 pM,200 pM,700 pM,510 pM,0.000723 s⁻¹,1.42e+06 M⁻¹ s⁻¹,,,,
B5,230 pM,580000 pM,300 pM,98000 pM,49000 pM,,,,1070 pM,0.000209 s⁻¹,195000 M⁻¹ s⁻¹,
B6,600 pM,,7600 pM,> 100000 pM,> 100000 pM,3780 pM,0.000603 s⁻¹,160000 M⁻¹ s⁻¹,,,,
B7,200 pM,2900 pM,270 pM,1100 pM,2500 pM,550 pM,0.000242 s⁻¹,438000 M⁻¹ s⁻¹,,,,
B8,1000 pM,3500 pM,320 pM,200 pM,500 pM,1210 pM,0.00238 s⁻¹,1.97e+06 M⁻¹ s⁻¹,,,,
B9,,,,,,,,,,,,no binding
